One may read the IC50 as the point on the concentration scale where inhibition reaches its midpoint. Low values mean greater potency in that assay, high ones weaker potency in that assay. In general, EC50 refers to the midpoint of the concentration-response curve. High values mean lower potency in that assay, low ones higher potency in that assay. A word on the Kd: it is the equilibrium constant for the complex coming apart. Usually koff stands for the rate constant with which the complex falls apart. The term kon denotes the second-order rate constant of association.

The text below walks through data of patent publication US20230331848A1 (BIOSION, published 2023).

In test [1] the target is T1, in house made human PD-1-Fc protein (human, biotin-labeled (sites not given)).
T1 construct: also called biotin-labeled human PD-1-Fc
Briefly: cell-based blocking FACS: antibody pre-mixed with biotin-labeled human PD-1-Fc, added to GS-C2/PD-L1 cells expressing human PD-L1 (blocked ligand); unit from the axis 'Con of mAb, nM.'. Here is the method:
GS-C2/PDL1 cells were harvested from cell culture flasks at the log phase, washed twice and re-suspended in PBS containing 2% v/v Fetal Bovine Serum (FACS buffer). GS-C2/PD-L1 cells, 0.6×10⁵ cells per welt, were incubated in 96 well-plates with 100 the antibody/PD1-Fc mixture for 40 minutes at 4° C. Cells were washed twice with FACS buffer, added with 100 R-Phycoerythrin Streptavidin (1:500 dilution in FACS buffer, Cat#:016-110-084, Jackson Immunoresearch), and incubated for 40 minutes at 4° C. in dark. Cells were washed twice and re-suspended in FACS buffer. Fluorescence was measured using a Becton Dickinson FACS Canto II-HTS equipment. Data was analyzed using Graphpad Prism software and IC₅₀ values were reported.

Test [2] addresses T1, in house made human PD-1-Fc protein. In words: capture ELISA: antibody captured on anti-mouse IgG F(ab')2 coated plate, biotin-labeled human PD-1-Fc detected with streptavidin-HRP; unit from the axis 'Con of mAb, nM.'. How it is done:
Briefly, 96-well micro plates were coated with 100 μl 2 μg/ml AffiniPure Goat Anti-Mouse IgG F(ab′)₂ fragment specific (Cat#:115-005-072, Jackson lmmunoResearch) or Goat-anti-human IgG (Cat#:109-005-097, Jackson ImmunoResearch, for the positive control and negative control) in PBS overnight at 4° C. Plates were washed once with wash buffer (PBST, PBS+0.05% Tween-20) and then blocked with 200 μl/well blocking buffer (5% w/v non-fatty milk in PBST) for 2 hours at 37° C. […] After a final wash, plates were incubated with 100 μl/well TMB (Cat#:TMB-S-002, Innoreagents) at room temperature.
The reaction was stopped 3-10 minutes later with 50 μl/well 1M H₂SO₄, and the absorbance was read on a microplate reader using dual wavelength mode with 450 nm for TMB and 630 nm as the reference wavelength. The OD (450-630) values were plotted against antibody concentrations. Data was analyzed using GraphPad Prism software and EC₅₀ values were reported.
(In general: In an ELISA, binding on a coated surface is turned into a signal by an enzyme label.)

Test [3] has the same target. Briefly: competitive ELISA: antibody pre-mixed with biotin-labeled human PD-1-Fc, added to coated Pembrolizumab (competitor); unit from the axis 'Con of mAb, nM.'. How it is done:
ELISA plates were washed once with wash buffer (PBST, PBS+0.05% Tween-20) and then blocked with 200 μl/well blocking buffer (5% w/v non-fatty milk in PBST) for 2 hours at 37° C. […] After incubation at 37° C. for 40 minutes, plates were washed using wash buffer, added and incubated with 100 μl/well Peroxidase Streptavidin for 40 minutes at 37° C. Plates were washed again using wash buffer. Finally, TMB was added and the reaction was stopped using 1M H₂SO₄. The absorbance was read on a microplate reader using dual wavelength mode with 450 nm for TMB and 630 nm as the reference wavelength, and the OD (450-630) values were plotted against antibody concentrations. Data was analyzed using Graphpad Prism software and IC₅₀ values were reported.

Test [4] deals with T2, human PD-1 expressed on GS-J2/PD-1 cells (Genscript) (human, UniProt Q15116 25-288).
T2 construct: whole, on cells; also called cell-surface human PD-1
Briefly: cell-based binding FACS on GS-J2/PD-1 cells expressing human PD-1 (MFI); unit from the axis 'Con of mAb, nM.'. Here is the method: The mouse anti-PD-1 antibodies of the disclosure were also tested for their binding activities to human PD-1s expressed on cell surface by flow cytometry (FACS), using GS-J2/PD-1 cell line (Genscript) expressing cell-surface human PD-1s.
In specific, the 293F-mouse PD-1 cells and GS-J2/PD-1 cells were respectively harvested from cell culture flasks, washed twice and re-suspended in PBS containing 2% v/v Fetal Bovine Serum (FACS buffer). Then, 2×10⁵ cells per well were incubated in 96 well-plates with 100 μl of the anti-PD1 antibodies or controls at various concentrations for 40 minutes on ice. […] Following an incubation of 40 minutes at 4° C. in dark, cells were washed three times and re-suspended in FACS buffer. Fluorescence was measured using a Becton Dickinson FACS Canto II-HTS equipment and plotted against antibody concentrations. Data was analyzed using GraphPad Prism software and EC₅₀ values were reported.

For test [5], the target named is T3, cynomolgus PD-1-his protein (Cat#:PD1-05223, Acro biosystems Inc.) (cynomolgus, UniProt B0LAJ3 25-170).
T3 construct: Bought protein used in Biacore and indirect ELISA; also called monkey PD-1; Cyno PD-1
Briefly: SPR (Biacore T200), antibody captured, PD-1-his in flow, 1:1 fit. The source says:
(§1) The purified anti-PD-1 mouse monoclonal antibodies (mAbs) generated in Example 1 were characterized for binding affinities and binding kinetics by Biacore T200 system (GE healthcare, Pittsburgh, Pa., USA).
(§2) Briefly, Goat-Anti-Mouse IgG (Cat#: BR100838, GE healthcare, Mouse Antibody Capture Kit) was covalently linked to a CMS chip (carboxy methyl dextran coated chip, Cat#: BR100530, GE healthcare) via primary amines using a standard amine coupling kit (GE healthcare, Pittsburgh, Pa., USA) provided by Biacore. Un-reacted moieties on the biosensor surface were blocked with ethanolamine. A Protein G chip (Cat#:29-1793-15, GE healthcare) was used for the positive controls affinity determination. The anti-PD-1 antibodies of the disclosure and the two positive controls at the concentration of 2 μg/ml were respectively flowed onto the chip at a flow rate of 10 μl/min. Then, serially diluted recombinant human PD-1-his protein (Cat#:10377-H08H, Sino biological Inc.), cynomolgus PD-1-his protein (Cat#:PD1-05223, Acro biosystems Inc.) and recombinant mouse PD-1-his protein (Cat#:50124-M08H, Sino Biological Inc), 2-fold dilution in HBS-EP⁺ buffer (provided by Biacore) starting at 200 nM, were respecitvely flowed onto the chip at a flow rate of 30 μl/min. The antigen-antibody association kinetics was followed for 2 minutes and the dissociation kinetics was followed for 10 minutes. The association and dissociation curves were fit to a 1:1 Langmuir binding model using Biacore evaluation software.
(In general: Surface plasmon resonance follows binding to a sensor surface in real time, without labels.)

The target in test [6] is T4, recombinant human PD-1-his protein (Cat#:10377-H08H, Sino biological Inc.) (human, UniProt Q15116 25-167).
T4 construct: Bought protein used as analyte in the Biacore tests; not shown: his tag
The test is described as above.
From the text: as §1, §2

B1: mouse anti-PD-1 monoclonal antibody E1A9C8A7 (antibody, V domains shown)
VH: QVQLQQSGAEVVRPGVSVRISCKGSGYTFSDYVMHWMKQSHGESLEWIGVISTYHIPAVYNQKFKGKATMTVDKSSSTVYLELARLTSEDSAIYYCAREVYGDSYYFDVWGAGTTVTVSS
VL: DVLMTQIPLSLPVSLGDQVSISCRSSQSIVHSNGNTYLEWYLQKPGQSPKLLIYKVSNRFSGVPDRFSGSGSGTDFTLKISRVEAEDLGVYYCFQGSHVPYTFGGGTKLEIK
notes: Hybridoma-derived mouse mAb purified on Protein A; also called Mouse E1A9C8A7
As to B1, the half-maximal inhibitory concentration (IC50) in test [1] was 0.782 nM; in test [3], 0.0982 nM. Besides, the concentration giving a half-maximal response (EC50) in test [2] came to 0.0554 nM; in test [4] it was 0.37 nM. Besides, the Kd in test [5] was 1.13 nM; in test [6] it was 1.1 nM. For the same molecule, the koff was found to be 0.000119 s⁻¹ in test [5] and 0.00022 s⁻¹ in test [6]. In addition, the figures for the kon in test [5] and in test [6] were 106000 M⁻¹ s⁻¹ and 199000 M⁻¹ s⁻¹, respectively.

B2: mouse anti-PD-1 monoclonal antibody E2G4E10B7 (antibody, V domains shown)
VH: QVQLQQSGAELVRPGVSVKISCKGSGYTFTDYVMHWVRQSHAKSLEWIGVISTHFGDGVYNQKFKGKATMTVDKSSSTAYMELARLTSEDSAIYYCAREVYGDSWYFDVWGAGTTVTVSS
VL: DVLMTQTPLSLPVSLGDQASISCRSSQSLVHSDGNTYLEWYLQKPGQSPKLLIYKVSNRFSGVPDRFSGSGSGTDFTLKISRLEAEDLGVYYCFQGSHVPYTFGGGTKLEIK
notes: Hybridoma-derived mouse mAb; also called Mouse E2G4E10B7
For B2, the values for the IC50 in test [1] and in test [3] were 0.484 nM and 0.162 nM, respectively. The EC50 in test [2] is 0.0647 nM; in test [4] it was 0.483 nM. Besides, the Kd was found to be 1.16 nM in test [5] and 0.906 nM in test [6]. The koff amounted to 0.000161 s⁻¹ in test [5] and 0.00022 s⁻¹ in test [6]. The kon in test [5] amounted to 138000 M⁻¹ s⁻¹; in test [6], 243000 M⁻¹ s⁻¹.

B3: mouse anti-PD-1 monoclonal antibody E1G5D1H1 (antibody, V domains shown)
VH: EVQLVESGGGLVKPGGSLKLSCAASGFTFSDFYMYWVRQTPEKRLEWVATISNSGTQTYYLDSVKGRFTISRDNAKNNLYLQMSSLKSEDTAMYYCARDYYRYDSWYFDVWGAGTTVTVSS
VL: DIVLTQSPASLAVSQGQRATISCRASESVDFYGTSLMQWFQLKPGQPPKLLIYAASNVESGVPARFSGSGSGTNFSLNIHPVEEDDIAMYFCQQSRKVPWTFGGGTNLEIK
notes: Hybridoma-derived mouse mAb; also called EIG5D1H1; E1G5DIH1
On to B3, for which the figures for the IC50 in test [1] and in test [3] were 0.496 nM and 0.0629 nM, respectively. In addition, the EC50 worked out at 0.0379 nM in test [2] and 0.23 nM in test [4]. In addition, the Kd in test [5] came out at 0.125 nM; in test [6], 0.236 nM. The koff is 4.32e-05 s⁻¹ in test [5] and 8.56e-05 s⁻¹ in test [6]. Further, the kon is 345000 M⁻¹ s⁻¹ in test [5] and 363000 M⁻¹ s⁻¹ in test [6].
